Numbering of substitutions follows the chain as printed. Each block holds one molecule with its values, some of them ahead of it.
T1: Osh6(H157A/H158A) (S. cerevisiae, UniProt Q02201 1-448, H157A | H158A)
T1 construct: also called Osh6(HH/AA)
T1 sequence (looked up): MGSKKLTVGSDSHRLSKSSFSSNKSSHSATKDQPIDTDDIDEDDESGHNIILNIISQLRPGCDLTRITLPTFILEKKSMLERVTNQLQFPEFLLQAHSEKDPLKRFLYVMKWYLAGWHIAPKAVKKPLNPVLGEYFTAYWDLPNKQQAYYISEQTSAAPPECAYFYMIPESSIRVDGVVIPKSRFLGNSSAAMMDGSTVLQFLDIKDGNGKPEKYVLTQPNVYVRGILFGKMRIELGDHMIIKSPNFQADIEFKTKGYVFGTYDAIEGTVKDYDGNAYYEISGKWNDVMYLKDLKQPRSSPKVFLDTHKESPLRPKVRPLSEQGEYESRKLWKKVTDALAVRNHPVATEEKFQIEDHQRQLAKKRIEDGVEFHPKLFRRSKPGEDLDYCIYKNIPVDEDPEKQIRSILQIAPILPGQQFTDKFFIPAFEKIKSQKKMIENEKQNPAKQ

B1: CIst2[590–946] (domain or fragment, S. cerevisiae)
chain: CSSHDDVANGIVPKHVVNVQNPPKQEVFEKIPSPEFNSNNEKELVQRKGSANEKLHQELGEKQPASSANGYEAHAATHANNDPSSLSSASSPSLSSSSSSSKTGVVKAVDNDTAGSAGKKPLATESTEKRNSLVKVPTVGSYGVAGATLPETIPTSKNYYLRFDEDGKSIRDAKSSAESSNATNNNTLGTESKLLPDGDAVDALSRKIDQIPKIAVTGGENNENTQAKDDAATKTPLIKDANIKPVVNAAVNDNQSKVSVATEQTKKTEVSTKNGPSRSISTKETKDSARPSNNNTTTTTTTDATQPHHHHHHHRHRDAGVKNVTNNSKTTESSSSSSAAKEKPKHKKGLLHKLKKKL
modifications: N-terminal cysteine covalently attached to MPB-PE of liposomes (in the experiments with MPB-PE–containing liposomes)
notes: extra N-terminal cysteine; With PM-like liposomes it is held by its C-terminal polybasic motif, not covalently; also called Ist2 IDR with an extra N-terminal cysteine; source: E. coli BL21-GOLD(DE3), purified (Glutathione Sepharose 4B, thrombin cleavage, Sephacryl S-200 HR); not shown: GST, N-terminal, cleaved
B2: Osh6 (natural protein, S. cerevisiae, UniProt Q02201 1-448, looked up)
chain: T1 sequence (looked up) with A157H, A158H
B3: Osh6(HH/AA)-3M (natural protein, S. cerevisiae, UniProt Q02201 1-448, looked up)
chain: T1 sequence (looked up) with E170A, Q417A, T420I
B4: GST-Ist2[590–946] (domain or fragment, S. cerevisiae, UniProt P38250 590-946, looked up)
chain: SSHDDVANGIVPKHVVNVQNPPKQEVFEKIPSPEFNSNNEKELVQRKGSANEKLHQELGEKQPASSANGYEAHAATHANNDPSSLSSASSPSLSSSSSSSKTGVVKAVDNDTAGSAGKKPLATESTEKRNSLVKVPTVGSYGVAGATLPETIPTSKNYYLRFDEDGKSIRDAKSSAESSNATNNNTLGTESKLLPDGDAVDALSRKIDQIPKIAVTGGENNENTQAKDDAATKTPLIKDANIKPVVNAAVNDNQSKVSVATEQTKKTEVSTKNGPSRSISTKETKDSARPSNNNTTTTTTTDATQPHHHHHHHRHRDAGVKNVTNNSKTTESSSSSSAAKEKPKHKKGLLHKLKKKL
notes: also called Ist2 IDR; full-length Ist2 IDR; source: E. coli BL21-GOLD(DE3), purified (Glutathione Sepharose 4B, eluted with glutathione); not shown: GST, N-terminal, kept

Key:
CIst2[590–946] [1] = molecular target: B1
Osh6 = molecular target: B2; experiment: liposome flotation assay; Osh6 (0.75 μM) with or without an equivalent amount of CIst2[590–946] and PM-like liposomes POPC/POPS/PI(4,5)P2/NBD-PE (65:30:5:0.1); sucrose gradient, top fraction by SDS-PAGE; conditions: both partners purified
CIst2[590–946] [2] = molecular target: B1; experiment: cell-based or functional assay
Osh6(H157A/H158A) = molecular target: T1, Osh6(H157A/H158A); experiment: pull-down; GST constructs (2.5 μM) immobilised on Glutathione Sepharose 4B beads; Osh6, its mutants, Osh4, ORD^Osh3 or ORD^ORP8 added at 2.5 μM; 50 mM tris pH 7.4, 120 mM NaCl, 1 mM MgCl2, 1% TX-100, 1 mM DTT, 10% glycerol; 25°C, 1 hour; bound fraction by SDS-PAGE; conditions: both partners purified

Ist2-dependent (ER→PM)/(ER→O) NBD-PS transfer rate ratio R (Ist2), three liposome populations, LER and LPM connected by CIst2[590–946], FRET, 30°C (CIst2[590–946] [1]): 1
Molecule: ORD^ORP8 (H514A/H515A) (domain or fragment)

Molecule: B1
binding result (Osh6): binds

Molecule: B2
Ist2-dependent (ER→PM)/(ER→O) NBD-PS transfer rate ratio R_(Ist2), three liposome populations, LER and LPM connected by CIst2[590–946], FRET, 30°C (CIst2[590–946] [2]): 7.6

Molecule: B3
Ist2-dependent (ER→PM)/(ER→O) NBD-PS transfer rate ratio R_(Ist2), three liposome populations, LER and LPM connected by CIst2[590–946], FRET (CIst2[590–946] [2]): ~1

Molecule: B4
binding result (Osh6(H157A/H158A)): binds

— PMC12617493 (Science Advances, 2025)
